Here are results for one substance from patent US20050119163A1.

In this test the target is Biotinylated Grb2 SH2 domain protein (UniProt P62993). In words: SPR (Biacore S51), b-Grb2 amine-coupled on CM5 chip, compound in solution. Background: Surface plasmon resonance follows binding to a sensor surface in real time, without labels.
Chain of Biotinylated Grb2 SH2 domain protein (P62993 60-152 limits assumed): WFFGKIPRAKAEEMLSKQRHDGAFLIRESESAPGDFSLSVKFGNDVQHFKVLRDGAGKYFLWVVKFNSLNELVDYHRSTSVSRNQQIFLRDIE

The substance “Compound 6, tri-sodium salt of compound 5: 2-{(9S,10S,14R,18S)-7,16,19-Triaza-18-(carbamoylmethyl)-14-[(5-methyl indolyl)methyl]-8,17,20-trioxo-10-[4-(phosphonomethyl)phenyl]spiro[5.14]icos-11-en-9-yl}acetic acid (peptide)” yielded a Kd of 1.67 nM.

In general, Kd refers to the free concentration of one partner at which half of the binding sites on the other are occupied at equilibrium, for simple one-to-one binding. A low value points to a tighter complex.
